The values that follow come from patent US20240277770A1, “SYSTEMS AND METHODS TO IDENTIFY MHC-ASSOCIATED ANTIGENS FOR THERAPEUTIC INTERVENTION” (GENENTECH, INC., priority 2021, published 2024).

This assay has as its target recombinant conditional HLA-A*02:01 complex (human). In words: TR-FRET peptide exchange / HLA complex stability assay. The conditions noted are these: remark: other sources report otherwise.

For HMTEVVRHC (here or on the partner: biotinylated (BirA)) […], the RZ-score was determined as 3.9.
